From patent publication US4642335A, “Anthracycline compounds bound to hydrophilic polypeptides” (Ajinomoto Co., Inc., priority 1984, dated 1987)
Values after ≈ are worked out from the molar mass of the structure shown. Like-named read-outs stand apart in the source and are kept apart here.

How the values were obtained:
[1] = test system: Micrococcus luteus ATCC9341; test: antibacterial activity, MIC, Micrococcus luteus ATCC9341; type: cell-based
[2] = test system: Bacillus subtilis ATCC6633; test: antibacterial activity, MIC, Bacillus subtilis ATCC6633; type: cell-based
mouse L1210 leukemia = test: antitumor activity against mouse L1210 leukemia, life prolongation rate; type: in vivo; conditions: once a day for five days starting 24 hours after tumor cell injection, control survival day = 100%
Experimental: (§1) These HB-6 substances were tested for their antitumor activity in terms of mouse L1210 leukemia. L1210 leukemia cells (1×10^5) were abdominally injected to each mouse, and the test sample was administered once a day for consecutive five days, with the first administration being started 24 hours after injection of the tumor cells. The result is summarized in Table 1, in which the antitumor activity of each drug is expressed as life prolongation rate, taking the survival day for the control group as 100%.
as §1, with “HBW-6” for “HB-6”, “2,” for “1,”

[3] = test system: Pseudomonas aeruginosa ATCC10145; test: antibacterial activity, MIC, Pseudomonas aeruginosa ATCC10145; type: cell-based
Isoelectric point = type: physicochemical
Solubility = type: physicochemical; conditions: water and organic solvents

With COc1cccc2c1C(=O)c1c(O)c3c(c(O)c1C2=O)C[C@@](O)(C(C)=O)C[C@@H]3O[C@H]1C[C@H](N)[C@H](O)[C@H](C)O1 [Daunomycin, daunomycin, reference compound] the MIC ([1]; read-out: MIC) was 1.2 µg/mL (≈ 2.27 µM), the MIC ([2]; read-out: MIC) was 5.8 µg/mL (≈ 11 µM) and the “Life Prolongation Rate” value (mouse L1210 leukemia; dose 2 mg/Kg) was 145%. The MIC ([3]; read-out: MIC) was over 10 µg/mL.

B1: NCS-apoprotein: methanol-insoluble fraction (protein moiety) of neocarzinostatin (protein, UniProt P0A3R9 35-147, looked up)
Neocarzinostatin: AAPTATVTPSSGLSDGTVVKVAGAGLQAGTAYDVGQCAWVDTGVLACNPADFSSVTADANGSASTSLTVRRSFEGFLFDGTRWGTVDCTTAACQVGLSDAAGNGPEGVAISFN
Work on B1 yielded an MIC [1] of over 100 µg/mL, an Isoelectric point (Isoelectric point) of 3.2 pH and an MIC [2] of over 100 µg/mL. For the same molecule, the Solubility (Solubility) was “Soluble in water; insoluble in methanol, ethanol, acetone, butanol and propanol”, the “Life Prolongation Rate” value (mouse L1210 leukemia; dose 2 mg/Kg) was 101% and the MIC [3] was over 100 µg/mL.

B2: HBW-10(A): NCS-apoprotein and daunomycin bound through hydrogen bond and/or hydrophobic bond, molar ratio 1:1 (conjugate, UniProt P0A3R9 35-147, looked up)
Neocarzinostatin: B1 Neocarzinostatin
modifications: noncovalent complex with daunomycin, 1:1
For B2, the MIC [1] was 0.30 µg/mL, the MIC [2] was 2.3 µg/mL and the “Life Prolongation Rate” value (mouse L1210 leukemia; dose 1 mg/Kg) was 260%. The MIC [3] was over 10 µg/mL.

B3: HBW-21(A): NCS-apoprotein and aclacinomycin A bound together, molar ratio 1:1 (conjugate, UniProt P0A3R9 35-147, looked up)
Neocarzinostatin: B1 Neocarzinostatin
modifications: aclacinomycin A conjugate, 1:1
With B3 the “Life Prolongation Rate” value (mouse L1210 leukemia; dose 1 mg/Kg) was 135%.

B4: HBW-21(B): NCS-apoprotein and aclacinomycin A bound together, molar ratio 1:5 (conjugate, UniProt P0A3R9 35-147, looked up)
Neocarzinostatin: B1 Neocarzinostatin
modifications: complex with aclacinomycin A, 1:5
With B4 the “Life Prolongation Rate” value (mouse L1210 leukemia; dose 1 mg/Kg) was 162%.
